According to the supplement of paper PMC5998384:

Experiments:
[1] = tested on: HeLa Kyoto; experiment: solubility in G1/S (NP-40 vs SDS abundance) (log2 ratio); higher = more soluble; details: cell cycle stage: G1/S
[2] = tested on: HeLa Kyoto; experiment: thermal stability score vs G1/S (z-score of summed log2 fold changes over temperatures); higher = more thermally stable than in G1/S
[3] = tested on: HeLa Kyoto; experiment: melting temperature (median over replicates), in situ; higher = more thermally stable
[4] = tested on: HeLa Kyoto; experiment: solubility change mitosis vs G1/S (difference of NP-40 vs SDS log2 ratios) (log2 ratio difference); higher = more soluble in mitosis
[5] = cell cycle stage: early G1 (4.5 h after nocodazole release)
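Wherever melting temperature (median over replicates), in situ is given: HeLa Kyoto cells synchronized by double thymidine or nocodazole block, proteins quantified by TMT10plex mass spectrometry, three independent biological replicates.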
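Wherever solubility change mitosis vs G1/S (difference of NP-40 vs SDS log2 ratios) is given: synchronized HeLa Kyoto cells (double thymidine block for G1/S, nocodazole release for mitosis), protein amounts in NP-40 versus SDS lysates quantified by mass spectrometry, three biological replicates.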
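Wherever solubility in G1/S (NP-40 vs SDS abundance) is given: HeLa Kyoto cells arrested at G1/S by double thymidine block, proteins quantified by TMT10plex mass spectrometry in mild NP-40 versus SDS extracts, three biological replicates.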
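Wherever thermal stability score vs G1/S (z-score of summed log2 fold changes over temperatures) is given: synchronized HeLa Kyoto cells, proteins quantified by TMT10plex mass spectrometry, three biological replicates, mitosis taken 0.5 h after nocodazole release, G1/S directly after double thymidine block.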

Sequence	solubility in G1/S (log2) [1]	thermal stability score [2, 5]	thermal stability score ([2]; cell cycle stage: mitosis)	melting temperature ([3]; cell cycle stage: G1/S) [°C]	melting temperature ([3]; cell cycle stage: mitosis) [°C]	solubility change mitosis (log2) [4]
MAEMGSKGVTAGKIASNVQKKLTRAQEKVLQKLGKADETKDEQFEQCVQNFNKQLTEGTRLQKDLRTYLASVKAMHEASKKLNECLQEVYEPDWPGRDEANKIAENNDLLWMDYHQKLVDQALLTMDTYLGQFPDIKSRIAKRGRKLVDYDSARHHYESLQTAKKKDEAKIAKPVSLLEKAAPQWCQGKLQAHLVAQTNLLRNQAEEELIKAQKVFEEMNVDLQEELPSLWNSRVGFYVNTFQSIAGLEENFHKEMSKLNQNLNDVLVGLEKQHGSNTFTVKAQPSDNAPAKGNKSPSPPDGSPAATPEIRVNHEPEPAGGATPGATLPKSPSQLRKGPPVPPPPKHTPSKEVKQEQILSLFEDTFVPEISVTTPSQFEAPGPFSEQASLLDLDFDPLPPVTSPVKAPTPSGQSIPWDLWEPTESPAGSLPSGEPSAAEGTFAVSWPSQTAEPGPAQPAEASEVAGGTQPAAGAQEPGETAASEAASSSLPAVVVETFPATVNGTVEGGSGAGRLDLPPGFMFKVQAQHDYTATDTDELQLKAGDVVLVIPFQNPEEQDEGWLMGVKESDWNQHKELEKCRGVFPENFTERVP [BIN1]	0.803	-1.69	0.531	51.9	51.6	-0.0586
MAENSVLTSTTGRTSLADSSIFDSKVTEISKENLLIGSTSYVEEEMPQIETRVILVQEAGKQEELIKALKTIKIMEVPVIKIKESCPGKSDEKLIKSVINMDIKVGFVKMESVEEFEGLDSPEFENVFVVTDFQDSVFNDLYKADCRVIGPPVVLNCSQKGEPLPFSCRPLYCTSMMNLVLCFTGFRKKEELVRLVTLVHHMGGVIRKDFNSKVTHLVANCTQGEKFRVAVSLGTPIMKPEWIYKAWERRNEQDFYAAVDDFRNEFKVPPFQDCILSFLGFSDEEKTNMEEMTEMQGGKYLPLGDERCTHLVVEENIVKDLPFEPSKKLYVVKQEWFWGSIQMDARAGETMYLYEKANTPELKKSVSMLSLNTPNSNRKRRRLKETLAQLSRETDVSPFPPRKRPSAEHSLSIGSLLDISNTPESSINYGDTPKSCTKSSKSSTPVPSKQSARWQVAKELYQTESNYVNILATIIQLFQVPLEEEGQRGGPILAPEEIKTIFGSIPDIFDVHTKIKDDLEDLIVNWDESKSIGDIFLKYSKDLVKTYPPFVNFFEMSKETIIKCEKQKPRFHAFLKINQAKPECGRQSLVELLIRPVQRLPSVALLLNDLKKHTADENPDKSTLEKAIGSLKEVMTHINEDKRKTEAQKQIFDVVYEVDGCPANLLSSHRSLVQRVETISLGEHPCDRGEQVTLFLFNDCLEIARKRHKVIGTFRSPHGQTRPPASLKHIHLMPLSQIKKVLDIRETEDCHNAFALLVRPPTEQANVLLSFQMTSDELPKENWLKMLCRHVANTICKADAENLIYTADPESFEVNTKDMDSTLSRASRAIKKTSKKVTRAFSFSKTPKRALRRALMTSHGSVEGRSPSSNDKHVMSRLSSTSSLAGIPSPSLVSLPSFFERRSHTLSRSTTHLI [ECT2]	-0.347	0.718	0.962	46.9	49.4	0.255
MAEPDPSHPLETQAGKVQEAQDSDSDSEGGAAGGEADMDFLRNLFSQTLSLGSQKERLLDELTLEGVARYMQSERCRRVICLVGAGISTSAGIPDFRSPSTGLYDNLEKYHLPYPEAIFEISYFKKHPEPFFALAKELYPGQFKPTICHYFMRLLKDKGLLLRCYTQNIDTLERIAGLEQEDLVEAHGTFYTSHCVSASCRHEYPLSWMKEKIFSEVTPKCEDCQSLVKPDIVFFGESLPARFFSCMQSDFLKVDLLLVMGTSLQVQPFASLISKAPLSTPRLLINKEKAGQSDPFLGMIMGLGGGMDFDSKKAYRDVAWLGECDQGCLALAELLGWKKELEDLVRREHASIDAQSGAGVPNPSTSASPKKSPPPAKDEARTTEREKPQ [SIRT2]	0.229	0.148	-0.178	51.4	52.5	-0.026
MAEPSAATQSHSISSSSFGAEPSAPGGGGSPGACPALGTKSCSSSCADSFVSSSSSQPVSLFSTSQEGLSSLCSDEPSSEIMTSSFLSSSEIHNTGLTILHGEKSHVLGSQPILAKEGKDHLDLLDMKKMEKPQGTSNNVSDSSVSLAAGVHCDRPSIPASFPEHPAFLSKKIGQVEEQIDKETKNPNGVSSREAKTALDADDRFTLLTAQKPPTEYSKVEGIYTYSLSPSKVSGDDVIEKDSPESPFEVIIDKAAFDKEFKDSYKESTDDFGSWSVHTDKESSEDISETNDKLFPLRNKEAGRYPMSALLSRQFSHTNAALEEVSRCVNDMHNFTNEILTWDLVPQVKQQTDKSSDCITKTTGLDMSEYNSEIPVVNLKTSTHQKTPVCSIDGSTPITKSTGDWAEASLQQENAITGKPVPDSLNSTKEFSIKGVQGNMQKQDDTLAELPGSPPEKCDSLGSGVATVKVVLPDDHLKDEMDWQSSALGEITEADSSGESDDTVIEDITADTSFENNKIQAEKPVSIPSAVVKTGEREIKEIPSCEREEKTSKNFEELVSDSELHQDQPDILGRSPASEAACSKVPDTNVSLEDVSEVAPEKPITTENPKLPSTVSPNVFNETEFSLNVTTSAYLESLHGKNVKHIDDSSPEDLIAAFTETRDKGIVDSERNAFKAISEKMTDFKTTPPVEVLHENESGGSEIKDIGSKYSEQSKETNGSEPLGVFPTQGTPVASLDLEQEQLTIKALKELGERQVEKSTSAQRDAELPSEEVLKQTFTFAPESWPQRSYDILERNVKNGSDLGISQKPITIRETTRVDAVSSLSKTELVKKHVLARLLTDFSVHDLIFWRDVKKTGFVFGTTLIMLLSLAAFSVISVVSYLILALLSVTISFRIYKSVIQAVQKSEEGHPFKAYLDVDITLSSEAFHNYMNAAMVHINRALKLIIRLFLVEDLVDSLKLAVFMWLMTYVGAVFNGITLLILAELLIFSVPIVYEKYKTQIDHYVGIARDQTKSIVEKIQAKLPGIAKKKAE [RTN3]	0.125	0.293	-1.15	55.7	57.6	-0.108
